Patent US20120114665A1

Molecular target: T1, penta-his-tagged hRANKL (human)
T1 sequence: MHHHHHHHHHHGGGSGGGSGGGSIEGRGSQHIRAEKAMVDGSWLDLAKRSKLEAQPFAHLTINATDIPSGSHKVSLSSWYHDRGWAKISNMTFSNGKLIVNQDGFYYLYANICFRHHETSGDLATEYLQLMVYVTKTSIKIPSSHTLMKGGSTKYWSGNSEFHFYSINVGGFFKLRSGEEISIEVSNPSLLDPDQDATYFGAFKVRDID
Assay: competition ELISA: 150 pM his-hRANKL pre-mixed with antibody, free RANKL detected on hRANK-hFc plate

Control: Human anti-hRANKL mAb, SEQ ID NO: 2 and 4 of U.S. Pat. No. 7,364,736 (antibody), sequence (VH): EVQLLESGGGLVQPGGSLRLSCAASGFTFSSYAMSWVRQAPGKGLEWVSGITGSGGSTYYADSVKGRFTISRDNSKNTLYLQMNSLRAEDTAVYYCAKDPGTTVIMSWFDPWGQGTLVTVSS
Control: Human anti-hRANKL mAb, SEQ ID NO: 2 and 4 of U.S. Pat. No. 7,364,736 (antibody), sequence (VL): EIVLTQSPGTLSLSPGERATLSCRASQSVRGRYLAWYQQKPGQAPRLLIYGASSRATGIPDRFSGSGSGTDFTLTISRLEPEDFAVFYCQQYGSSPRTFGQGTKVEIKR

IC50: 0.095 nM
Substance: Control: Human anti-hRANKL mAb, SEQ ID NO: 2 and 4 of U.S. Pat. No. 7,364,736 (antibody)
